This is an account of results in US20210115138A1.

The target of assay [1] is human LAG-3 protein (Example 3) (human) (UniProt P18627). Briefly: ELISA; blocking of LAG-3 protein binding to Galectin-3.
Assay [2] concerns the target human LAG-3 on cells (human) (UniProt P18627). Put plainly: FACS affinity test on cell surface human LAG-3.
Assay [3] has as its target human LAG-3 protein (Example 3) (human) (UniProt P18627). Briefly: FACS; blocking of LAG-3 protein binding to MHC-II on Raji cells.
Assay [4] concerns the target human LAG-3 on cells (human) (UniProt P18627). Briefly: FACS on cell surface human LAG-3.
The target of assay [5] is human LAG-3 protein (Example 3) (human) (UniProt P18627). Put plainly: ELISA; blocking of LAG-3 protein binding to LSECtin.
For assay [6] the target is unchanged. Put plainly: SPR.

human LAG-3 protein (Example 3) (human), sequence (P18627 23-450 limits assumed): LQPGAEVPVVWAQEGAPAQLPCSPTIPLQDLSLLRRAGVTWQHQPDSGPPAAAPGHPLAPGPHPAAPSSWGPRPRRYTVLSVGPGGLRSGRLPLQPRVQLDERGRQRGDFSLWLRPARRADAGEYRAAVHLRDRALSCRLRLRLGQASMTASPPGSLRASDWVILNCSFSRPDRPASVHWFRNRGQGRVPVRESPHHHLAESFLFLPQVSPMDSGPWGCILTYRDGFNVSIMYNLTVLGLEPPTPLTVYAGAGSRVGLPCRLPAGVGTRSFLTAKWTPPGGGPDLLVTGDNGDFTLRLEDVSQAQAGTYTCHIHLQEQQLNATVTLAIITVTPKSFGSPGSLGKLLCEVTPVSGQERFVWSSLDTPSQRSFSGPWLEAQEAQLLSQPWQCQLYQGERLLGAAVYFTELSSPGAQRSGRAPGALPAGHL
human LAG-3 on cells (human), sequence (P18627 23-525): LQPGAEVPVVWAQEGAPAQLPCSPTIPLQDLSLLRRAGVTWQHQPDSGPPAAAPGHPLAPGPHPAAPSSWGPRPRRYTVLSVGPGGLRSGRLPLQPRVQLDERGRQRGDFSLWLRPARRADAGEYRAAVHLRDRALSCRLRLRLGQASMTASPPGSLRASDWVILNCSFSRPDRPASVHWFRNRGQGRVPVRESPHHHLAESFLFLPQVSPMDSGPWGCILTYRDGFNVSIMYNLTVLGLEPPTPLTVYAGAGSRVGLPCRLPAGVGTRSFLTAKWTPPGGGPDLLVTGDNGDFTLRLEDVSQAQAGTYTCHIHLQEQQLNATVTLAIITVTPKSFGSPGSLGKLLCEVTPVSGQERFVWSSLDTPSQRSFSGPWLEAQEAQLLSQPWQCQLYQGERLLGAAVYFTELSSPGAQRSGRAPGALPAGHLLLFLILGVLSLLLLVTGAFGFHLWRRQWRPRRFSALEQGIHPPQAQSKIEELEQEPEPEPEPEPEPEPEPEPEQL

B1: BMK7 (antibody, INN chains, looked up, V domains shown)
VH: QVQLVESGGGVVQPGRSLRLSCVASGFTFSSYGMHWVRQAPGKGLEWVAIIWYDGSNKYYADSVKGRFTISRDNSKNTQYLQMNSLRAEDTAVYYCASVATSGDFDYYGMDVWGQGTTVTVSS
VL: EIVLTQSPATLSLSPGERTTLSCRASQRISTYLAWYQQKPGQAPRLLIYDASKRATGIPARFSGSGSGTGFTLTISSLEPEDFAVYYCQQRSNWPLTFGGGTKVEIK
As for B1, the EC50 in assay [1] stood at 0.79 nM; in assay [3] it was 1.25 nM; in assay [4], 0.61 nM; in assay [5], 0.59 nM. The Kd is 0.58 nM in assay [2] and 0.497 nM in assay [6].
